Test results: US20120015347A1

How the values were obtained:
[1] = target: HEL-Dylight488 conjugate (hen egg lysozyme labeled with Dylight488) (chicken) (UniProt P00698); assay: microfluidic fluorescence bead assay; mAb captured on rabbit anti-mouse pAb Protein A beads, labeled antigen in flow
[2] = target: HEL-Dylight633 conjugate (hen egg lysozyme labeled with Dylight633) (chicken) (UniProt P00698); assay: as above
[3] = target: HEL-Dylight633 conjugate (hen egg lysozyme labeled with Dylight633) (chicken) (UniProt P00698); assay: microfluidic fluorescence bead assay; compared with D1.3 mAb on HEL

Kd [1] [nM] | Kd [2] [nM] | koff [2] [s⁻¹] | kon [2] [M⁻¹ s⁻¹] | fold larger association rate constant than D1.3 mAb [3] [fold] | fold smaller dissociation rate constant than D1.3 mAb [3] [fold] | fold smaller equilibrium dissociation constant than D1.3 [3] [fold] | Substance
1.2 | – | – | – | – | – | – | D1.3 mouse monoclonal antibody (mAb) to lysozyme
– | 0.03 | 0.000169 | 5.75e+06 | 4 | 10 | 40 | HyHEL-5 mouse monoclonal antibody to lysozyme
